Assay results: patent publication US20220054630A1 (UNIVERSITY OF MARYLAND COLLEGE PARK, published 2022)

B1: sE2 design H445P (other)
chain: ETHVTGGSAGRTTAGLVGLLTPGAKQNIQLINTNGSWHINSTALNCNESLNTGWLAGLFYQPKFNSSGCPERLASCRRLTDFAQGWGPISYANGSGLDERPYCWHYPPRPCGIVPAKSVCGPVYCFTPSPVVVGTTDRSGAPTYSWGANDTDVFVLNNTRPPLGNWFGCTWMNSTGFTKVCGAPPCVIGGVGNNTLLCPTDCFRKHPEATYSRCGSGPWITPRCMVDYPYRLWHYPCTINYTIFKVRMYVGGVEHRLEAACNWTRGERCDLEDRDRSE
B2: sE2 design Y632NS (Y632N-G634S) (other)
chain: ETHVTGGSAGRTTAGLVGLLTPGAKQNIQLINTNGSWHINSTALNCNESLNTGWLAGLFYQHKFNSSGCPERLASCRRLTDFAQGWGPISYANGSGLDERPYCWHYPPRPCGIVPAKSVCGPVYCFTPSPVVVGTTDRSGAPTYSWGANDTDVFVLNNTRPPLGNWFGCTWMNSTGFTKVCGAPPCVIGGVGNNTLLCPTDCFRKHPEATYSRCGSGPWITPRCMVDYPYRLWHYPCTINYTIFKVRMNVSGVEHRLEAACNWTRGERCDLEDRDRSE
B3: wild-type soluble E2 (sE2), HCV isolate H77C, residues 384-661 (other)
chain: ETHVTGGSAGRTTAGLVGLLTPGAKQNIQLINTNGSWHINSTALNCNESLNTGWLAGLFYQHKFNSSGCPERLASCRRLTDFAQGWGPISYANGSGLDERPYCWHYPPRPCGIVPAKSVCGPVYCFTPSPVVVGTTDRSGAPTYSWGANDTDVFVLNNTRPPLGNWFGCTWMNSTGFTKVCGAPPCVIGGVGNNTLLCPTDCFRKHPEATYSRCGSGPWITPRCMVDYPYRLWHYPCTINYTIFKVRMYVGGVEHRLEAACNWTRGERCDLEDRDRSE
B4: sE2 design Triple (ΔHVR1-H445P-Y632NS) (other)
chain: KQNIQLINTNGSWHINSTALNCNESLNTGWLAGLFYQPKFNSSGCPERLASCRRLTDFAQGWGPISYANGSGLDERPYCWHYPPRPCGIVPAKSVCGPVYCFTPSPVVVGTTDRSGAPTYSWGANDTDVFVLNNTRPPLGNWFGCTWMNSTGFTKVCGAPPCVIGGVGNNTLLCPTDCFRKHPEATYSRCGSGPWITPRCMVDYPYRLWHYPCTINYTIFKVRMNVSGVEHRLEAACNWTRGERCDLEDRDRSE

The binders below were run against T1, CD81 large extracellular loop (LEL) (UniProt P60033 113-201) (assay: BLI (Octet RED96), His6-tagged sE2 on Ni-NTA biosensors, CD81-LEL in solution).
T1 construct: domain: large extracellular loop (LEL); not shown: C-terminal twin Strep tag
T1 sequence: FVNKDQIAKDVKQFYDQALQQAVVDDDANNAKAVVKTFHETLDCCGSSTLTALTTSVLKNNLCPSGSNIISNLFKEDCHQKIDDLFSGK

Does B1 bind?
Result: binds

Does B2 bind?
Result: binds

Does B3 bind?
Result: binds

Does B4 bind?
Result: binds
